Experimental data taken from PMC11526878.

Molecular target: ryanodine receptor 1 (RyR1) purified from rabbit skeletal muscle (rabbit) (UniProt P11716)
Assay: cryo-EM structure

Chain of ryanodine receptor 1 (RyR1) purified from rabbit skeletal muscle, P11716 1-5037 (P11716 whole entry): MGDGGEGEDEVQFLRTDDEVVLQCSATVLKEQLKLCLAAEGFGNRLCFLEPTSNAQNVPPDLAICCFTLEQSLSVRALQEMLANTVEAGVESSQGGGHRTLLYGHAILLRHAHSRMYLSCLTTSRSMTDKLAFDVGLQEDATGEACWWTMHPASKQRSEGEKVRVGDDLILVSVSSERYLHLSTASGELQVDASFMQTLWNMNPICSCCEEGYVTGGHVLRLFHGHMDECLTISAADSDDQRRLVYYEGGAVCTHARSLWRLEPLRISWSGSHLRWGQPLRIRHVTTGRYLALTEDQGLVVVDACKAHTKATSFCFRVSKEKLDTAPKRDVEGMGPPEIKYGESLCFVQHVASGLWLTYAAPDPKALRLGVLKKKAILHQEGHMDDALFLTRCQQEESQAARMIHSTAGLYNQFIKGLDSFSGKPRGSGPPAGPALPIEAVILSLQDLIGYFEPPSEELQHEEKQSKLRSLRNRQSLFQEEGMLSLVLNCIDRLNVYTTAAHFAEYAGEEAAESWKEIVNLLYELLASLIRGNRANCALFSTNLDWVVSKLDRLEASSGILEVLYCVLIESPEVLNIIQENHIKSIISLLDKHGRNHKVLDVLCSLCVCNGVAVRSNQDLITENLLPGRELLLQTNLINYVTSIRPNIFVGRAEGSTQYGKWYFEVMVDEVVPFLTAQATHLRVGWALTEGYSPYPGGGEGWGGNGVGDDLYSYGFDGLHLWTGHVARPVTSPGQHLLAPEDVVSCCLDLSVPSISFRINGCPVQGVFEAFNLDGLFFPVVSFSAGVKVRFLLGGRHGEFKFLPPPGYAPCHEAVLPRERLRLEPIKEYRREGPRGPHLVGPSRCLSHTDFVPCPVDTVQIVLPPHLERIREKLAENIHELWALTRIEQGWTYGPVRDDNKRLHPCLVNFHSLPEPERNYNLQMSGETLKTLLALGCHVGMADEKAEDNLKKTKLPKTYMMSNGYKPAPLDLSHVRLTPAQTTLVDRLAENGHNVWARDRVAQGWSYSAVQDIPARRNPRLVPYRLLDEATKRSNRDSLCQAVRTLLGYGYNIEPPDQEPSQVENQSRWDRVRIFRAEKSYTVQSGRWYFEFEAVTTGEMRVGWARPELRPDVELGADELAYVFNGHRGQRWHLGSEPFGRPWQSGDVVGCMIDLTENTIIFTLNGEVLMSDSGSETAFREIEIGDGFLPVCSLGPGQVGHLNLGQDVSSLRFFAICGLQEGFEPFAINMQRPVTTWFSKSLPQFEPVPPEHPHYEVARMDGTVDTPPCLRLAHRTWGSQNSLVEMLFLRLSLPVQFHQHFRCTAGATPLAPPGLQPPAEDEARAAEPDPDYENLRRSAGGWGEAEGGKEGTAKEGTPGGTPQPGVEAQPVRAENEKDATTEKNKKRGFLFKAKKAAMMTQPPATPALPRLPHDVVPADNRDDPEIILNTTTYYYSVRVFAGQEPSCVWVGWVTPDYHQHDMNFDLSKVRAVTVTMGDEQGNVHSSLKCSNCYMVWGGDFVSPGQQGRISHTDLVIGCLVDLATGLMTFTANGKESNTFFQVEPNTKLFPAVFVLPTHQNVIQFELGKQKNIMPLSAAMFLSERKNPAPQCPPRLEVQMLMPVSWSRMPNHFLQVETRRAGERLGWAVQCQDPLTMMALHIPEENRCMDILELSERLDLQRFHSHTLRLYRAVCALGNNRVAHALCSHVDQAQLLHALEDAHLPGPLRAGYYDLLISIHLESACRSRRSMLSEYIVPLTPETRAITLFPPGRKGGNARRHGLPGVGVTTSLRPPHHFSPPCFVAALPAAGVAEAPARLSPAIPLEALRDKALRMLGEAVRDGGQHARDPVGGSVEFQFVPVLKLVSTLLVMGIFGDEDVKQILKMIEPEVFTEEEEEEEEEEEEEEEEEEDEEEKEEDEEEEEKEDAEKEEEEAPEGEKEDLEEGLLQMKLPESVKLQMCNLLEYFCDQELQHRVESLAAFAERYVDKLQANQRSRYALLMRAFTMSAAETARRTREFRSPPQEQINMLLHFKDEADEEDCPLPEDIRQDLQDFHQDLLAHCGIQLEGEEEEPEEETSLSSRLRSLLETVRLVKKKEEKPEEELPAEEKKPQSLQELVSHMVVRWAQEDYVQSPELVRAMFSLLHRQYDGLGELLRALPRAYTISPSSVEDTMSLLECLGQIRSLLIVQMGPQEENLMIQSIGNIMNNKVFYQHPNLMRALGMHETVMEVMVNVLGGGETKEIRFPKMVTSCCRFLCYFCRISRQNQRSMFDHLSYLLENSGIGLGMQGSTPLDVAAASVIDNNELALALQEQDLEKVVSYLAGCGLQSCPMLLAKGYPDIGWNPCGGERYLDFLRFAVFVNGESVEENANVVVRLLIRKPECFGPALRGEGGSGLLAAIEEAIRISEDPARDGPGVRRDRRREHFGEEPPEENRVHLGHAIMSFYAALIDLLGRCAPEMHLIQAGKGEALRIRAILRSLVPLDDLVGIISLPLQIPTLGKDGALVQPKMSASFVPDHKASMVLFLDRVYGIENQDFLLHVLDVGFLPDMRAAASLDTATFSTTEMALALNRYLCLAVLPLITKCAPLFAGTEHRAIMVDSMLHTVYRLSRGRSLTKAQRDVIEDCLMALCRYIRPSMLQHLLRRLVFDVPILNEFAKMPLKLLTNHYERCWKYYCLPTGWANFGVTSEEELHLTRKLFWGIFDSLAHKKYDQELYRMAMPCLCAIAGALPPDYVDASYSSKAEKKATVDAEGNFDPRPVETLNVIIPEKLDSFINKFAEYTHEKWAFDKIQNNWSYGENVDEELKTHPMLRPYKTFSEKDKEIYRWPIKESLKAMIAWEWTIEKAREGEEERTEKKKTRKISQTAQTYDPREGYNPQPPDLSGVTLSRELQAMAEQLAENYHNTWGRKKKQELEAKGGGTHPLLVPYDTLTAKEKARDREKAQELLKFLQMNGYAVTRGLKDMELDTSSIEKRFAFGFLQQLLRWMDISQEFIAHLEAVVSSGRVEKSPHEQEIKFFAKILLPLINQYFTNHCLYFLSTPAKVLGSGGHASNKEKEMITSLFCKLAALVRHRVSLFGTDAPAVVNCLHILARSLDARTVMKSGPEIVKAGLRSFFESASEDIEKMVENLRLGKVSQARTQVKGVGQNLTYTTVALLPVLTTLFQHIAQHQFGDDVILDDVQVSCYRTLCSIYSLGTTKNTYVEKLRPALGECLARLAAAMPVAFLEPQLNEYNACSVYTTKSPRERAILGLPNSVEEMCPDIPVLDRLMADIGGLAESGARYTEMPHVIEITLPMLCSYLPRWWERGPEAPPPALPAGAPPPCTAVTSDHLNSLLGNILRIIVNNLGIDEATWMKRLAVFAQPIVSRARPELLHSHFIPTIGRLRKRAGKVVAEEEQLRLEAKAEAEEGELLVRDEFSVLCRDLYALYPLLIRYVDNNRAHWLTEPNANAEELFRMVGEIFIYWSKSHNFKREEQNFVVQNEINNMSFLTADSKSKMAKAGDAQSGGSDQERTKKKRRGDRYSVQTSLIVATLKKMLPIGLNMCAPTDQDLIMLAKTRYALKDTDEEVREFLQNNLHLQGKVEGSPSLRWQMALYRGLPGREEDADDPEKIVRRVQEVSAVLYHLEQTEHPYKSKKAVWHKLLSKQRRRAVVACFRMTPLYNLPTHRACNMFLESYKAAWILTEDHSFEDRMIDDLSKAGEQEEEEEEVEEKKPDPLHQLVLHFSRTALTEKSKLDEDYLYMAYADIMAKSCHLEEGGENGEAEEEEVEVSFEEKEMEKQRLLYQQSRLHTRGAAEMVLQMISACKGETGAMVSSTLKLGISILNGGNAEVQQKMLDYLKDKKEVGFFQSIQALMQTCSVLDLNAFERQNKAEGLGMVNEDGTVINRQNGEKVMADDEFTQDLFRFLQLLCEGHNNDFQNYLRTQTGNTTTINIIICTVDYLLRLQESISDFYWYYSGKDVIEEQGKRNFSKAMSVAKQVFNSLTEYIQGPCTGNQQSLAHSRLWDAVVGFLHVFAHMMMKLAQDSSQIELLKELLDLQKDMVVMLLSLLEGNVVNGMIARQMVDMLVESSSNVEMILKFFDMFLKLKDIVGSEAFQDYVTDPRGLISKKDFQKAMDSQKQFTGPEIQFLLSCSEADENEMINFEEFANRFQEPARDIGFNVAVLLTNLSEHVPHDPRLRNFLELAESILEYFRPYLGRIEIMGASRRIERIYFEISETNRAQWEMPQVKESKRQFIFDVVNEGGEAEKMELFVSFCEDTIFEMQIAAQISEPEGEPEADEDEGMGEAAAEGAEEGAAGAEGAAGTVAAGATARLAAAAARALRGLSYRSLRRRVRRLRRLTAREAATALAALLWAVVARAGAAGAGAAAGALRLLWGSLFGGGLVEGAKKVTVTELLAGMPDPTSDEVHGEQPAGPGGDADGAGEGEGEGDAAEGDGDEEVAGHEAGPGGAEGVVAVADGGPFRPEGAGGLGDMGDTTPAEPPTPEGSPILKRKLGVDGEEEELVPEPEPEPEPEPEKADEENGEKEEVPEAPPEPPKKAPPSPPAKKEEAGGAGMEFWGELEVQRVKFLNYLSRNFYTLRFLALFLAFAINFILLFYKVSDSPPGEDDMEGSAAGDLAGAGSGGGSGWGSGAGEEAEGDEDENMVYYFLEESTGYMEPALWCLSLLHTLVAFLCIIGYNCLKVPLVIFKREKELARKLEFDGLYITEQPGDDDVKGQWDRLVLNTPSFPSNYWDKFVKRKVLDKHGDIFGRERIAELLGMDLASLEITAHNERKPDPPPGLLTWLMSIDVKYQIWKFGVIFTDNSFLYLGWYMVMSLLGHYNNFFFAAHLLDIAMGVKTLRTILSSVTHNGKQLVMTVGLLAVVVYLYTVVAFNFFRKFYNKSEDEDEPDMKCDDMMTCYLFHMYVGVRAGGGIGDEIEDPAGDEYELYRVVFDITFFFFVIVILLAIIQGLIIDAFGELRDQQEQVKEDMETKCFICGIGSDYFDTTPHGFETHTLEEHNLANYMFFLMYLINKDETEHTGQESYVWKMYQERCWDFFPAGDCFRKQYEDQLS

stoichiometry N: 4
Substance: ryanodine receptor 1 (RyR1) purified from rabbit skeletal muscle, P11716 1-5037
